One block for each binder: values may come before it.
Key:
human CCR8 = target: T1, human CCR8 (human, UniProt P51685 1-355); experiment: KinExA, HUT78 cells
T1 construct: Transiently expressed on HEK 293T cells, or endogenous on HuT78/HUT78 cells and primary human regulatory T cells; also called hCCR8; human C-C chemokine receptor type 8
Description: The cells were counted using a hemocytometer. The HUT78 cells were titrated and incubated with two different constant antibody concentrations, one at 48 pM and the other at 2 nM, in HUT media (RPMI 1640, 10% FBS, 10 mM HEPES, 2 mM L-Glut, 1 mM Sod. Pyr, 0.1 mM NEAA, 50 uM 2-ME) with 0.05% Sodium Azide. For the high [Ab] equilibrium set, HUT78 cells were titrated from 62.5 million per milliliter concentration 1:2 for 10 points in eppendorf tubes and equilibrated with 2 nM antibody in a total volume of 400 μl. For the low [Ab] equilibrium set, HUT78 cells were titrated from 3.89 million per milliliter concentration, 1:2 for 10 points in 50 ml Fulcon tubes and equilibrated with 48 pM antibody in a total volume of 15.5 mL.
For each equilibrium sample the free [Ab] was detected by running the equilibrium samples through the coated beads followed by a quick wash with the running buffer (1×PBS pH7.4+1% BSA+0.05% Sodium Azide). The secondary detection antibody (goat anti-huIgG (H+L) Alexa 647) was run through the flow cell at 680 ng/ml and 500 μL per run. The KinExA voltage output signal was used in KinExA software to calculate the Kd. […]
Cells in media were serially diluted and incubated with 48 pM or 2 nM active binding site concentration of antibody in media in the presence of 0.05% NaN3, and allowed to equilibrate. The free mAb left in the supernatant was measured as described above. […]

human CCR4 = target: T2, human CCR4 (human, UniProt P51679 1-360); experiment: flow cytometry, HEK293T transfectants
T2 construct: Transiently expressed on HEK293T; also called hCCR4
T2 sequence: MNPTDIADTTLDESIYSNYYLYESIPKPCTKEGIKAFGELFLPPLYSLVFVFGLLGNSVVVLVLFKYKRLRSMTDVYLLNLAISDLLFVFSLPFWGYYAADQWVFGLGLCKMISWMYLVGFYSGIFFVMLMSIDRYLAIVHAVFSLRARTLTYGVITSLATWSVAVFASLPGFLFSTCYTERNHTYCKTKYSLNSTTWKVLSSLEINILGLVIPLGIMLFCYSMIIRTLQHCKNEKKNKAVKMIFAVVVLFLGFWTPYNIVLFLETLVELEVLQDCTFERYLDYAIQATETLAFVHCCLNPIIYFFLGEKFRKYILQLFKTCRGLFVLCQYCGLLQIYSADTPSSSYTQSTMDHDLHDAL
Excerpt: (§1) Transfected cells were used to assess an antibody's binding specificity using flow cytometry on host Human Embryonic Kidney (HEK) 293T cells. Proteins were expressed on HEK 293T cells by transfection using human CCR8 (SEQ ID NO: 21), human CCR8 with an A27G point mutation (SEQ ID NO: 23), murine CCR8 (SEQ ID NO: 24), rat CCR8 (SEQ ID NO: 25), human CCR4 (SEQ ID NO: 26), or control expression vectors, Gibco™ Opti-MEM® media (Gibco), and 293Fectin™ reagent (Invitrogen) according to the manufacturer's instructions. Human T-cell lymphoma (HuT78) cell lines were also used to determine specificity to endogenously expressed CCR8.
Transfected HEK293T cells (24 hours after transfection) or HuT78 cells were resuspended in FACS buffer (PBS+2% Fetal Bovine Serum) and added to a 96-well plate. […]
Alexa Fluor 647 goat anti-human or rat IgG (Fcγ fragment specific) secondary antibodies (Jackson ImmunoResearch) made up in FACS buffer at 5.0 μg/mL were added to each well, and cells were resuspended and incubated for 15 minutes at 4° C. […] Samples were resuspended in FACS buffer and read on either IntelliCyt® iQue or BD Accuri™ Flow Cytometer with an Intellicyt HyperCyt autosampler.

[1] = target: T3, human CCR8 with an A27G point mutation (human, UniProt P51685 1-355); experiment: flow cytometry, HEK293T transfectants, supernatant 5 ug/mL
T3 construct: Transiently expressed on HEK293T; also called Human CCR8 [A27G]; humanCCR8[A27G]
T3 sequence (P51685 whole entry A27G): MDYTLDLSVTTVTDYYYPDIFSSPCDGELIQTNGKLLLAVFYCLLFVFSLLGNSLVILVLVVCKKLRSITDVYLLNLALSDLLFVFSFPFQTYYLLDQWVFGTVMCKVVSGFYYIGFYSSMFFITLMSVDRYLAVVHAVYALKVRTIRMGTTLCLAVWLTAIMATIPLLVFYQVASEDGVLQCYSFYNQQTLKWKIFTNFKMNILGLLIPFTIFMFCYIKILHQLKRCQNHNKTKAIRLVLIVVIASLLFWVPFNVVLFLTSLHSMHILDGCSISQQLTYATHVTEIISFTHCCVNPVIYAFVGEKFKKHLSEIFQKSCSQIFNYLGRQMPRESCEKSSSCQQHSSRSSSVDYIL
Excerpt: as §1
(§2) Transfected HEK293T cells (24 hours after transfection) or HuT78 cells were resuspended in FACS buffer (PBS+2% Fetal Bovine Serum) and added to a 96-well plate. Hybridoma supernatant samples containing control antibodies 433H (BD Biosciences) or L263G8 (BioLegend), Antibody 1 IgG2, or Antibody 2 IgG2 were added at a final concentration of 5.0 μg/mL, cells were resuspended and incubated for 1 hour at 4° C. Plates were washed twice with FACS buffer, centrifuged to pellet the cells, and supernatant was removed and resuspended in FACS buffer to remove unbound antibodies.
(§3) Alexa Fluor 647 goat anti-human or rat IgG (Fcγ fragment specific) secondary antibodies (Jackson ImmunoResearch) made up in FACS buffer at 5.0 μg/mL were added to each well, and cells were resuspended and incubated for 15 minutes at 4° C. Plates were washed twice with FACS buffer, centrifuged to pellet the cells, and supernatant was removed and resuspended in FACS buffer to remove unbound secondary antibodies. Samples were resuspended in FACS buffer and read on either IntelliCyt® iQue or BD Accuri™ Flow Cytometer with an Intellicyt HyperCyt autosampler.

murine CCR8 = target: T4, murine CCR8 (murine, UniProt P56484 1-353); experiment: as above
T4 construct: Transiently expressed on HEK293T; also called Mouse CCR8; mCCR8
T4 sequence: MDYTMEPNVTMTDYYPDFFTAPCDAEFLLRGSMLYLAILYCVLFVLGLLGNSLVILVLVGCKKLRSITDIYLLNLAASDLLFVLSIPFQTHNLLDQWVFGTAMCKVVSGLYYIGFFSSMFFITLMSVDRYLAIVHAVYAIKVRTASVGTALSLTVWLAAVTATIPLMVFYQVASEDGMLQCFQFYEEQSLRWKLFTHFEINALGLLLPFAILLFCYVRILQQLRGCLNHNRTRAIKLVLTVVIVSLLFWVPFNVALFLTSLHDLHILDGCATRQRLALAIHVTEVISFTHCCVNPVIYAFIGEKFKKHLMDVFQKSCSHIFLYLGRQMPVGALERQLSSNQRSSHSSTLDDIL
Excerpt: as §1, §2, §3

rat CCR8 = target: T5, rat CCR8 (rat, UniProt P56484 1-353 (mouse entry)); experiment: as above
T5 construct: Transiently expressed on HEK293T
T5 chain: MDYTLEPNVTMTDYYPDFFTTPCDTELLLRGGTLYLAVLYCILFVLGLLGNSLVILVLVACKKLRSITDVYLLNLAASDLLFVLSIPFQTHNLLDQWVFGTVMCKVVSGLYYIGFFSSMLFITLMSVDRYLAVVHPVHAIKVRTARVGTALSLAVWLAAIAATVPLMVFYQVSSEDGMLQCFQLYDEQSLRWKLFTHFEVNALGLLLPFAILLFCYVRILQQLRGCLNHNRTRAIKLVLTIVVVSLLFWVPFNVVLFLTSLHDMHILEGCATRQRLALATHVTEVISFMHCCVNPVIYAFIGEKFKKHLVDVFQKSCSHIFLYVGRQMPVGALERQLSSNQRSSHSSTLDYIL
Excerpt: as §1, §2, §3

T1 sequence (P51685 whole entry): as the sequence (P51685 whole entry A27G) above, with G27A counted along it

Kd (human CCR8): > 5 nM | binding result (human CCR4): no binding (tested: 5.0 ug/mL) | binding by FACS (read-out not named) [1]: 24200 | binding by FACS (read-out not named) (murine CCR8): 3600 | binding by FACS (read-out not named) (rat CCR8): 11000
B1: Antibody 2 IgG2 (antibody, V domains shown)
VH: QVQLVESGGGVVQPGRSLRLSCAASGFTFSNYGMHWVRQAPGKGLEWVAVISYDGSNKFYADSVKGRFTISRDNSKKTLYLQMSSLRVEDTAVYYCARAGGIGRFDYWGQGTLVTVSS
VL: DFVMTQTPLSLSVTPGQPASISCKYSQSLLHSDGKTYLFWYLQKPGQPPHLLIYEVSNRFSGVPDRFSGSGSGTDFTLKISRVEAEDVGLYYCMQTLKLPLTFGGGTKVEINR
notes: IgG2; tested as hybridoma supernatant

Kd (human CCR8): 0.216 nM | binding result (human CCR4): no binding (tested: 5.0 ug/mL) | binding by FACS (read-out not named) [1]: 36900 | binding by FACS (read-out not named) (murine CCR8): 24700 | binding by FACS (read-out not named) (rat CCR8): 105000
B2: Antibody 1 IgG2 (antibody)
heavy: EVQLVESGGGLVKPGGSLRLSCAASGFTFSNARMGWVRQAPGKGLEWVGRIKSKTEGGTRDYAAPVKGRFTISRDDSKNTLYLQMNSLKTEDTAVYYCTSYSGVWGQGTMVTVSSASTKGPSVFPLAPCSRSTSESTAALGCLVKDYFPEPVTVSWNSGALTSGVHTFPAVLQSSGLYSLSSVVTVPSSNFGTQTYTCNVDHKPSNTKVDKTVERKCCVECPPCPAPPVAGPSVFLFPPKPKDTLMISRTPEVTCVVVDVSHEDPEVQFNWYVDGVEVHNAKTKPREEQFNSTFRVVSVLTVVHQDWLNGKEYKCKVSNKGLPAPIEKTISKTKGQPREPQVYTLPPSREEMTKNQVSLTCLVKGFYPSDIAVEWESNGQPENNYKTTPPMLDSDGSFFLYSKLTVDKSRWQQGNVFSCSVMHEALHNHYTQKSLSLSPGK
light: not shown
notes: as for B1

From patent US20250171549A1 (Amgen, published 2025)
